Data: PMC10404681, “Intrinsic catalytic properties of histone H3 lysine-9 methyltransferases preserve monomethylation levels under low S-adenosylmethionine” (The Journal of Biological Chemistry, 2023)

Experiments:
[1] = substrate: C[S+](CC[C@H](N)C(=O)[O-])C[C@H]1O[C@@H](n2cnc3c(N)ncnc32)[C@H](O)[C@@H]1O; experiment: Radiometric EZ-tip methyltransferase assay, steady-state kinetics, EHMT1; format: biochemical, H. sapiens; conditions: other: SAM varied 0.1–100 μM, EHMT1 25 nM, pH 7.9, 30 °C, 20 min, n = 3, SD
Text: (§1) HMT amino acids included in expression plasmids are as follows: EHMT1 = 982 to 1266; EHMT2 = 913 to 1193; SUV39H1 = full length with N-terminal maltose-binding protein; SUV39H2 = 162 to 410.
(§2) Michaelis-Menten saturation curves were generated under steady-state conditions with the non-titrated component concentration being present at ≥5× KM specific to each enzyme. 1 × 10^5 CPM values were provided by [methyl-^3H] SAM in each reaction. Reaction times and enzyme concentrations were optimized for each HMT to ensure substrate turnover remained below 20%. 50 μM H3 peptide was combined with varying SAM concentrations up to 100 μM and either EHMT1 (25 nM), EHMT2 (25 nM), SUV39H1 (100 nM), or SUV39H2 (25 nM) in histone methyltransferase (HMT) activity buffer (50 mM HEPES pH 7.9, 0.5 mM DTT, 0.1 mM AEBSF, 2 mM MgCl2, 0.01% v/v Triton X-100) with a final volume of 20 μl. Enzyme concentrations are calculated for the monomeric form. Reactions were incubated at 30 °C for 20 min before quenching with TFA for a final concentration of 2% v/v TFA. Then, the reactions were cleaned using StageTips (i.e., two Attract SPE disks (Affinisep) in a pipette tip) with 200 μl acidified water (0.5% v/v formic acid) and eluted with 100 μl elution buffer (80% v/v acetonitrile, 0.5% v/v formic acid). The eluates were added to 2 ml of Ultima Gold LSC Cocktail (Sigma-Aldrich) and counted on a scintillation counter (PerkinElmer). All CPM values were corrected for decreased StageTip capacity when peptide concentrations exceeded 10 μM.
(§3) CPM values were converted to rates of product formation (μM/min) and used to generate Michaelis-Menten kinetic constants via GraphPad Prism v9.5.0 via the following equation: Y = Et∗kcat∗X/(KM + X). Variable definitions are as follows: Y = rate of product formation/enzyme velocity; X = substrate concentration; Et = concentration of enzyme in reaction.

[2] = substrate: C[S+](CC[C@H](N)C(=O)[O-])C[C@H]1O[C@@H](n2cnc3c(N)ncnc32)[C@H](O)[C@@H]1O; experiment: Radiometric EZ-tip methyltransferase assay, steady-state kinetics, EHMT2; format: biochemical, H. sapiens; conditions: other: SAM varied 0.1–100 μM, EHMT2 25 nM, pH 7.9, 30 °C, 20 min, n = 3, SD
Text: as §1, §2, §3

[3] = substrate: C[S+](CC[C@H](N)C(=O)[O-])C[C@H]1O[C@@H](n2cnc3c(N)ncnc32)[C@H](O)[C@@H]1O; experiment: Radiometric EZ-tip methyltransferase assay, steady-state kinetics, SUV39H1; format: biochemical; conditions: other: SAM varied 0.1–100 μM, SUV39H1 100 nM, pH 7.9, 30 °C, 20 min, n = 3, SD
Text: as §1, §2, §3

[4] = substrate: C[S+](CC[C@H](N)C(=O)[O-])C[C@H]1O[C@@H](n2cnc3c(N)ncnc32)[C@H](O)[C@@H]1O; experiment: Radiometric EZ-tip methyltransferase assay, steady-state kinetics, SUV39H2; format: biochemical, H. sapiens; conditions: other: SAM varied 0.1–100 μM, SUV39H2 25 nM, pH 7.9, 30 °C, 20 min, n = 3, SD
Text: as §1, §2, §3

[5] = fixed H3K9me1 peptide H3(1–17) 50 μM
[6] = fixed H3K9me2 peptide H3(1–17) 50 μM
[7] = fixed H3K9un peptide H3(1–17) 50 μM

B1: EHMT1 catalytic domain (Homo sapiens) (protein)
chain: NSQVWSALQMSKALQDSAPDRPSPVERIVSRDIARGYERIPIPCVNAVDSEPCPSNYKYVSQNCVTSPMNIDRNITHLQYCVCIDDCSSSNCMCGQLSMRCWYDKDGRLLPEFNMAEPPLIFECNHACSCWRNCRNRVVQNGLRARLQLYRTRDMGWGVRSLQDIPPGTFVCEYVGELISDSEADVREEDSYLFDLDNKDGEVYCIDARFYGNVSRFINHHCEPNLVPVRVFMAHQDLRFPRIAFFSTRLIEAGEQLGFDYGERFWDIKGKLFSCRCGSPKCRHS
notes: EHMT1 = 982 to 1266; host or cells: Rosetta E. coli
Protein B1 has a Km [1, 5] of 6.84 ± 1.81 µM, a kcat [1, 5] of 0.0335 ± 0.0025 s⁻¹ and a kcat/Km [1, 5] of 5000 ± 833 M⁻¹ s⁻¹. For the same protein, the Km [1, 6] was 2.21 ± 0.65 µM, the kcat [1, 6] was 0.0112 ± 0.000333 s⁻¹ and the kcat/Km [1, 6] was 5330 ± 1330 M⁻¹ s⁻¹. For the same protein, the Km [1, 7] was 13.51 ± 4.95 µM, the kcat [1, 7] was 0.211 ± 0.0108 s⁻¹ and the kcat/Km [1, 7] was 16800 ± 4500 M⁻¹ s⁻¹.

B2: EHMT2 catalytic domain (Homo sapiens) (protein)
chain: NRAIRTEKIICRDVARGYENVPIPCVNGVDGEPCPEDYKYISENCETSTMNIDRNITHLQHCTCVDDCSSSNCLCGQLSIRCWYDKDGRLLQEFNKIEPPLIFECNQACSCWRNCKNRVVQSGIKVRLQLYRTAKMGWGVRALQTIPQGTFICEYVGELISDAEADVREDDSYLFDLDNKDGEVYCIDARYYGNISRFINHLCDPNIIPVRVFMLHQDLRFPRIAFFSSRDIRTGEELGFDYGDRFWDIKSKYFTCQCGSEKCKHSAEAIALEQSRLARLD
notes: EHMT2 = 913 to 1193; made in house; host or cells: Rosetta E. coli (plasmid from the laboratory of Peter W. Lewis)
Work on B2 yielded a Km [2, 5] of 16.80 ± 2.69 µM, a kcat [2, 5] of 0.0358 ± 0.00383 s⁻¹ and a kcat/Km [2, 5] of 2170 ± 167 M⁻¹ s⁻¹. The Km [2, 6] was 6.10 ± 1.0 µM, the kcat [2, 6] was 0.0175 ± 0.00117 s⁻¹ and the kcat/Km [2, 6] was 2830 ± 500 M⁻¹ s⁻¹. For the same protein, the Km [2, 7] was 19.21 ± 2.00 µM, the kcat [2, 7] was 0.127 ± 0.00183 s⁻¹ and the kcat/Km [2, 7] was 6670 ± 667 M⁻¹ s⁻¹.

B3: SUV39H1 (Homo sapiens) (protein)
chain: MAENLKGCSVCCKSSWNQLQDLCRLAKLSCPALGISKRNLYDFEVEYLCDYKKIREQEYYLVKWRGYPDSESTWEPRQNLKCVRILKQFHKDLERELLRRHHRSKTPRHLDPSLANYLVQKAKQRRALRRWEQELNAKRSHLGRITVENEVDLDGPPRAFVYINEYRVGEGITLNQVAVGCECQDCLWAPTGGCCPGASLHKFAYNDQGQVRLRAGLPIYECNSRCRCGYDCPNRVVQKGIRYDLCIFRTDDGRGWGVRTLEKIRKNSFVMEYVGEIITSEEAERRGQIYDRQGATYLFDLDYVEDVYTVDAAYYGNISHFVNHSCDPNLQVYNVFIDNLDERLPRIAFFATRTIRAGEELTFDYNMQVDPVDMESTRMDSNFGLAGLPGSPKKRVRIECKCGTESCRKYLF
notes: made in house; host or cells: Rosetta E. coli (plasmid generated for this study)
B3 gave a Km [3, 5] of 11.78 ± 3.85 µM, a kcat [3, 5] of 0.005 ± 0.000833 s⁻¹ and a kcat/Km [3, 5] of 500 ± 167 M⁻¹ s⁻¹. The Km [3, 6] was 3.60 ± 1.72 µM, the kcat [3, 6] was 0.0005 ± 0.000167 s⁻¹ and the kcat/Km [3, 6] was 167 ± 50 M⁻¹ s⁻¹. It also gave a Km [3, 7] of 4.52 ± 0.49 µM, a kcat [3, 7] of 0.00717 ± 0.000667 s⁻¹ and a kcat/Km [3, 7] of 1670 ± 333 M⁻¹ s⁻¹.

B4: SUV39H2 catalytic domain (Homo sapiens) (protein)
chain: LEGPPSDFYYINEYKPAPGISLVNEATFGCSCTDCFFQKCCPAEAGVLLAYNKNQQIKIPPGTPIYECNSRCQCGPDCPNRIVQKGTQYSLCIFRTSNGRGWGVKTLVKIKRMSFVMEYVGEVITSEEAERRGQFYDNKGITYLFDLDYESDEFTVDAARYGNVSHFVNHSCDPNLQVFNVFIDNLDTRLPRIALFSTRTINAGEELTFDYQMKGSGDISSDSIDHSPAKKRVRTVCKCGAVTCRGYLN
notes: host or cells: Rosetta E. coli
Work on B4 yielded a Km [4, 5] of 9.85 ± 1.21 µM, a kcat [4, 5] of 0.059 ± 0.00383 s⁻¹ and a kcat/Km [4, 5] of 6000 ± 500 M⁻¹ s⁻¹. For the same protein, the Km [4, 6] was 8.18 ± 3.14 µM, the kcat [4, 6] was 0.0703 ± 0.00583 s⁻¹ and the kcat/Km [4, 6] was 9170 ± 2500 M⁻¹ s⁻¹. For the same protein, the Km [4, 7] was 4.70 ± 0.69 µM, the kcat [4, 7] was 0.0668 ± 0.00567 s⁻¹ and the kcat/Km [4, 7] was 14300 ± 1330 M⁻¹ s⁻¹.
